Earlier results, collected in article PMC5075240.

Biological target: calmodulin (UniProt P0DP23)

TRPV1 C-terminal fragment 767-801 (from UniProt O35433)
Kd: 50 nM
